Molecular target: T1, MG64-1 Cas12k expressed with an N-terminal Twin Strep tag and an HRV3C protease site and a C-terminal 2xNLS tag
T1 sequence: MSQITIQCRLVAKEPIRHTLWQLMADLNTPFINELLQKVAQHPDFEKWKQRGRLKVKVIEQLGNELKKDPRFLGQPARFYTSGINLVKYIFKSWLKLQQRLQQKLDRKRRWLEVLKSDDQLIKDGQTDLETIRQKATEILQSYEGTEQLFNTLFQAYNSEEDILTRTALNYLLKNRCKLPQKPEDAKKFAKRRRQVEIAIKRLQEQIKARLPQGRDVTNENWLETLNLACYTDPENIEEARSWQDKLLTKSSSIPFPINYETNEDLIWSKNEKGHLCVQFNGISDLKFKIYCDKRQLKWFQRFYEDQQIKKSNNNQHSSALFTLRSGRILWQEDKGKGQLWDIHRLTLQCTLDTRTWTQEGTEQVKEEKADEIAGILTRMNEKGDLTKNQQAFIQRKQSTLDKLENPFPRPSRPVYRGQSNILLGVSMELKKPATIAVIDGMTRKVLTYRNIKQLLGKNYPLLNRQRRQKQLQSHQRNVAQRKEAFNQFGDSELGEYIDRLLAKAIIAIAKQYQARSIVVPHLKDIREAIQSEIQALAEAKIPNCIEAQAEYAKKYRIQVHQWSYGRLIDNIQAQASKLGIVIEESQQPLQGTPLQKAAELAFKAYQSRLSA
Experiment: mass spectrometry of tryptic peptides from SEC-eluted Cas12k Strep pulldown complex; emPAI is a relative measure of abundance

B1: MG64-1 TniQ (protein)
chain: MESREIQPWWFLVEPLAGESISHFLGRFRRENELTVTMMGKITGLGGTITRWEKFRFIPIPTEEELTALSEVVQVEVERLWQMFPPKGVGMKHQPIRLCGACYEEERCHKIEWQLKTTQFCSQHGLTLLSECPNCGARFQFPALWVNGWCHRCFLTFGEMVEGQSNKKKYL
Binder B1 has an emPAI of 1.61.

B2: MG64-1 TnsC (protein)
chain: MTIQEAQAVAKQLGDIQLTSEKLQAEIQRLNRKTVVTLSHVEALHNWLEGKRQAKQSCRVVGESRTGKTIACNAYRLRHKPIQTPGKPPIVPVVYIQVTQECGAKDLFGAIIEHLKYQMTKGTVAEIRQRTFKVLQRCGVEMLIIDEADRLKPKTFAEVRDIFDKLNIAVVLVGTDRLDAVIKRDEQVYNRFRACHRFGKLAGDEFSQTVNIWERQVLKLPVASNLSSKRMLKILGQATGGYLGLLDMILRESAIRALKKGLQKIDLDTLKEVTEEYR
Work on B2 yielded an emPAI of 2.43.

— patent publication US20260265717A1
